Laboratory results from US20240270846A1 (published 2024).
Substitutions are numbered along the chain they refer to.

B1: CE115HA000 Y100aQ one-arm antibody (antibody, human IgG1, kappa, L234A L235A, N297A, name in Kabat numbering)
heavy: QVQLVESGGGVVQPGRSLRLSCAASGFTFSNAWMHWVRQAPGKGLEWVAQIKAKSNNYATYYAESVKGRFTISRDDSKNSLYLQMNSLKTEDTAVYYCRYVHYGAYQGVDAWGQGTTVTVSSASTKGPSVFPLAPSSKSTSGGTAALGCLVKDYFPEPVTVSWNSGALTSGVHTFPAVLQSSGLYSLSSVVTVPSSSLGTQTYICNVNHKPSNTKVDKKVEPKSCDKTHTCPPCPAPEAAGGPSVFLFPPKPKDTLMISRTPEVTCVVVDVSHEDPEVKFNWYVDGVEVHNAKTKPREEQYASTYRVVSVLTVLHQDWLNGKEYKCKVSNKALPAPIEKTISKAKGQPREPQVYTLPPSRCELTKNQVSLSCAVKGFYPSDIAVEWESNGQPENNYKTTPPVLDSDGSFFLVSKLTVDKSRWQQGNVFSCSVMHEALHNHYTQKSLSLSPDYKDDDDK
chain: EPKSSDKTHTCPPCPAPELLGGPSVFLFPPKPKDTLMISRTPEVTCVVVDVSHEDPEVKFNWYVDGVEVHNAKTKPREEQYNSTYRVVSVLTVLHQDWLNGKEYKCKVSNKALPAPIEKTISKAKGQPREPQVCTLPPSRDELTKNQVSLWCLVKGFYPSDIAVEWESNGQPENNYKTTPPVLDSDGSFFLYSKLTVDKSRWQQGNVFSCSVMHEALHNRYTQKSLSLSP
light: DIVMTQSPLSLPVTPGEPASISCRSSQSLVHSNRNTYLHWYQQKPGQAPRLLIYKVSNRFSGVPDRFSGSGSGTDFTLKISRVEAEDVGVYYCGQGTQVPYTFGQGTKLEIKRTVAAPSVFIFPPSDEQLKSGTASVVCLLNNFYPREAKVQWKVDNALQSGNSQESVTEQDSKDSTYSLSSTLTLSKADYEKHKVYACEVTHQGLSSPVTKSFNRGEC
notes: one-arm antibody
B2: CE115HA000 Y100aS one-arm antibody (antibody, human IgG1, kappa, L234A L235A, N297A, name in Kabat numbering)
heavy: B1 heavy with Q107S
chain: B1 chain
light: B1 light
notes: one-arm antibody
B3: GPC3 ERY22-B (bispecific antibody, human IgG1, kappa, L234A L235A, N297A)
heavy 1: DIVMTQSPLSLPVTPGEPASISCRSSQSLVHSNRNTYLHWYQQKPGQAPRLLIYKVSNRFSGVPDRFSGSGSGTDFTLKISRVEAEDVGVYYCSQNTHVPPTFGQGTKLEIKSSASTKGPSVFPLAPSSKSTSGGTAALGCLVKDYFPEPVTVSWNSGALTSGVHTFPAVLQSSGLYSLSSVVTVPSSSLGTQTYICNVNHKPSNTKVDKKVEPKSCDKTHTCPPCPAPEAAGGPSVFLFPPKPKDTLMISRTPEVTCVVVDVSHEDPEVKFNWYVDGVEVHNAKTKPREEQYASTYRVVSVLTVLHQDWLNGKEYKCKVSNKALPAPIEKTISKAKGQPREPQVCTLPPSRDELTKNQVSLWCLVKGFYPSDIAVEWESNGQPENNYKTTPPVLDSDGSFFLYSKLTVDKSRWQQGNVFSCSVMHEALHNHYTQKSLSLSPHHHHHHHH
light 1: QVQLVQSGAEVKKPGASVKVSCKASGYTFTDYEMHWIRQPPGQGLEWIGAIDPKTGDTAYSQKFKGRVTLTADKSTSTAYMELSSLTSEDTAVYYCTRFYSYTYWGQGTLVTVSSASVAAPSVFIFPPSDEQLKSGTASVVCLLNNFYPREAKVQWKVDNALQSGNSQESVTEQDSKDSTYSLSSTLTLSKADYEKHKVYACEVTHQGLSSPVTKSFNRGEC
heavy 2: QVQLQQWGAGLLKPSETLSLTCAVYGGSFSGYYWSWIRQSPEKGLEWIGEINHGGYVTYNPSLESRVTISVDTSKNQFSLKLSSVTAADTAVYYCARDYGPGNYDWYFDLWGRGTLVTVSSASTKGPSVFPLAPSSKSTSGGTAALGCLVKDYFPEPVTVSWNSGALTSGVHTFPAVLQSSGLYSLSSVVTVPSSSLGTQTYICNVNHKPSNTKVDKKVEPKSCDKTHTCPPCPAPEAAGGPSVFLFPPKPKDTLMISRTPEVTCVVVDVSHEDPEVKFNWYVDGVEVHNAKTKPREEQYASTYRVVSVLTVLHQDWLNGKEYKCKVSNKALPAPIEKTISKAKGQPREPQVYTLPPSRCELTKNQVSLSCAVKGFYPSDIAVEWESNGQPENNYKTTPPVLDSDGSFFLVSKLTVDKSRWQQGNVFSCSVMHEALHNHYTQKSLSLSP
light 2: not shown

Experiments:
[1] = target: T1, CD3 epsilon homodimer protein (UniProt P07766 23-126); experiment: SPR (Biacore T200), CD3 epsilon homodimer on CM4 chip, one-arm antibody as analyte; ratio to unaltered CE115HA000;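 also: surface plasmon resonance run at 25 °C with HBS-EP+ as running buffer, CD3 epsilon homodimer attached by amine coupling, antibody passed over as analyte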
T1 construct: Construct of the homodimer protein is not described; also called CD3 (CD3 epsilon)
T1 sequence (P07766 23-126): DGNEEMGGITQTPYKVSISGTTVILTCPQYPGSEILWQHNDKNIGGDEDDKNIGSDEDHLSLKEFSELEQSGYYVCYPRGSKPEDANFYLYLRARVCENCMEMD

[2] = target: human CD137 expressed constitutively on the B cell strain HDLM-2 (human, UniProt Q07011 24-255); experiment: cell-based or functional assay
Sequence of human CD137 expressed constitutively on the B cell strain HDLM-2 (Q07011 24-255): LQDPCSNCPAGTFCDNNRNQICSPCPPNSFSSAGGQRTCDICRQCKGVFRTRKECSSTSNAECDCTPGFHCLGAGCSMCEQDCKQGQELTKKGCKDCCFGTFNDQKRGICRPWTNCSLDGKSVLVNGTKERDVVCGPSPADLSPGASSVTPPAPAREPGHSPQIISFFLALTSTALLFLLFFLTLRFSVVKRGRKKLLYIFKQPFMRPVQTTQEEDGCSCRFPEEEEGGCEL

| Binder | KD ratio (KD value of CE115HA000/KD value of the altered form) [1] | Agonistic activity compared to B, antibody 6 µg/mL [2] | Agonistic activity compared to B, antibody 30 µg/mL [2] | Agonistic activity compared to Ctrl, antibody 6 µg/mL [2] | Agonistic activity compared to Ctrl, antibody 30 µg/mL [2] | hIL-6 (pg/mL), antibody 6 µg/mL [2] | hIL-6 (pg/mL), antibody 30 µg/mL [2] |
| --- | --- | --- | --- | --- | --- | --- | --- |
| B1 | 0.51 |  |  |  |  |  |  |
| B2 | 0.59 |  |  |  |  |  |  |
| B3 |  | 100% | 100% | 347% | 380% | 4520 pg/mL | 4340 pg/mL |
